Assay: soluble on expression in E. coli; label from the status in PepcDB or PDB records

Sequence | soluble on expression in E. coli
MSLNQRTLFDKIWDEHVVDVGADGTTLLYVDRHFLHEVTSPQAFRGLQLAGRRPWRSDANLAMPDHNVPTKDRAAHLDDALARAQIEALDRNCAEFAVPLFRLSDPRQGIVHVSGPEQGASLPGSVIVCGDSHTSTHGALATIAHGIGTSEVEHVLATQTLLARKPARMRVNFHGVAGAGVSAKDMALAMIAKVGAAGAQGYAIEYAGEAVRCLSVEARMTLCNMSIEAGARCGMVAVDDKTIEYLRGRPMAPRGESWDLAVRTWRALVSDHDAQFDVEIEIDVGMLGPLVTWGTSPDMVISVDEKIPDPAAEKDGTRRAGMERALRYMDLAPGTPITDVRLDRIFIGSCTNSRLEDLRAAAEVIRGKHVAASIRQALVVPGSGLVKQQAENEGLHQLFIDAGFEWRDAGCSMCVGMNADHLLSGERCASTSNRNFEDRQGVGGRTHLVSPAMAAAAAIAGHFVDIRRSEGHHHHHH | not soluble
MSLIPKFREFDRERHRTDYQKGMSYAEQQDFDMGFTIWFDHIEDLDLIEKDGTINRIVMMSTGLKDKNVKEIYESDIVRNLYGELYVVEWLDGSFVLTEFYNGGYDHYIIDSSTEYEVLGNIYENPELLEDDNHASNEGHHHHHH | soluble
MRQHTRIANHNHYSWRIAVMTDTHSIAQPFEAEVSPANNRHVTVGYASRYPDYSRIPAITLKGQWLEAAGFATGTAVDVKVMEGCIVLTAQPPAAEESELMQSLRQVCKLSARKQKQVQAFIGVIAGKQKVA | not soluble
MENQPKLNSSKEVIAFLAERFPHCFSAEGEARPLKIGIFQDLVERVGGEMNLSKTQLRSALRLYTSSWRYLYGVKPGATRVDLDGNPCGELEEQHVEHARKQLEEAKARVQAQRAEQQAKKREAAAAAGEKEDAPRRERKPRPVARRKEGAERKPRADKPTTKAPRAPREEKHTPVSDISVLTVGQSLKVKAGNNAMDATVLEITKDGVRVQLNSGMSLIVRAEHLVF | not soluble
MPGSLPPNGESSWPKDVGIVALEIYFPSQYVDQEELEKFDGVSAGKYTIGLGQSKMGFCSDREDINSLCLTAVQRLMERNNLSYDCIGRLEVGTETIIDKSKSVKTVLMQLFEESGNTDVEGIDTTNACYGGTAALFNAVNWVESSSWDGRYALVVAGDIAVYATGSARPTGGAGAVAMLVGPNATLVFERGLRGTHMQHAYDFYKPDMESEYPVVDGKLSIQCYLSALDHCYSTYRKKIHAQWQKEGTEKPFTLNDFGFMIFHSPYCKLVQKSFARLLVNDFISDSNPNTESGVYVGLDSFRDLKLEETYFDRDVEKAFLKASTELFNEKTKTSLLVSKENGNMYTPSVYGCLASVLAQYSPQQLAGQRIGVFSYGSGFAATLYSLRVSQDAMPGSSLDKLTSSLSDLKARLDSRKNVSPSIFADNMKLREDTHHLANYVPQGSVDDLFPGTWYLVRVDEKHRRFYARSSLMRDGPLDAAPESVHSSTANEHFPSPAKKVPRIPPAAEAEPISVTNGGH | soluble
MAEIGIFVGTMYGNSLLVAEEAEAILTAQGHKATVFEDPELSDWLPYQDKYVLVVTSTTGQGDLPDSIVPLFQGIKDSLGFQPNLRYGVIALGDSSYVNFCNGGKQFDALLQEQSAQRVGEMLLIDASENPEPETESNPWVEQWGTLLS | soluble
TQQPIVTGTSVISMKYDNGVIIAADNLGSYGSLLRFNGVERLIPVGDNTVVGISGDISDMQHIERLLKDLVTENAYDNPLADAEEALEPSYIFEYLATVMYQRRSKMNPLWNAIIVAGVQSNGDQFLRYVNLLGVTYSSPTLATGFGAHMANPLLRKVVDRESDIPKTTVQVAEEAIVNAMRVLYYRDARSSRNFSLAIIDKNTGLTFKKNLQVENMKWDFAKDIKGYGTQKI | soluble
MFREESRSVPVEEGEVYDVTIQDIARQGDGIARIEGFVIFVPGTKVGDEVRIKVERVLPKFAFASVVELEHHHHHH | not soluble
QYRHLLDLQPMLEALSESSFLNQPVEGHGPLGIIAFGIGYNYAMEARKAHSIECRLLKIGQYPLPRTQVNELFEACSEVLVVEEGYPVYEELFRGYFGSAKVRGRMDGTLPRDGELTTDLVAAALGVKPPETATTPEIVVGRPPELCKGCGHRDMFDAINIAIKENADHHVFSDIGCYTLGALPPYNAIHTCVDMGAAITMAKGAADAGLRPAVCVIGDSTFAHSGMTGLLDAVNDRTPVTVIIADNNTTAMTGGQCSSASGSKLVNICIGLGVEEA | not soluble
MSTQEVNITLTDFINQLDSNAEQVSFEQVMKVISENYNYLPATFNNGDLFNEAGTNEGSCKIFYFAKLNNLSEQQTLACFGRFYREDVVNNPQGNDHGNIRNFMQSGWSKVEFNSVALTPLT | not soluble
SSSSSDGGLFRSRPAHSLPPGEDGRVEPYVDFAEFYRLWSVDHGEQSVMTAP | soluble
MENKSPMKGSEAENAKDQLKKKTAEEFAQMAIINRAFSAESTEDPPPLAQKRSESTLKPLNDELKSVPLVRAFNSAENQLDPKNQNAAKK | not soluble
MGSDKIHHHHHHMAIKILSVDDEQDLEALLTQYFRRKIRKGEYEFSFAHNGLEALRMMLDHPDFDIILSDINMPEMDGLTLLTKINEMRNPALKCIIVSAYGDMENIRTAMNHGAFDFATKPIDMEDLERTIEKAVEQISFIKEAQKEHHQLEEIQYDLNVAREIQQSILPKQFPPFPQYKQFDLYATMSAAKAVGGDFYDFFLVDDNHLGFTIADVSDKGIPAAIFMAISRTVIRATALRQLSPAVCMKESNDLLCRESVNGMFVTTFYAILNIHTGDVVYCNGGHNRPVWIRKNDKVSLLPMTGGMALGVVPGLAYKEQSLKLEAGDSLFLYTDGISEAMNLRNEQYGDIRLVEACSSVKNQSPKSMIEGISESVQSFVNGATQSDDITMLALTYKG | not soluble
GPGSMNFTQQLWSVKEWGRVMATRSEYVQIVHDATNDEKWGPTGPQMDAVCNAYPRGGPEILNELRTRLNNRDKSWRPCYKSLLVIDYLARNVDDRYLPEISALVPIIRTISTSFYYTNPKGVDHGVSVRERAKKVADLLSDGLQLREERMVAAQIKAKLSHNASDGGGPNSDAPYSGAGSYGGSRDCDRYRSYVKGSRQAYDSYRSSPPPSAVLSRPRTKEEQERCDMEMALRLQRDEERRSGVSAEQLEEMYAT | soluble
MGSDKIHHHHHHMGLAKTRSAAISGVTGVIVDVEANIGAGLPGTYIVGLADAAVAEARQRIKTAVNNSELPWPKTKVIVNLSPASLRKNGAQFDLGICMAIMAASGMHNPDCRDIENTLFLGEIGLDGAIKPISGLVPALLAARGAEIRNVVIPWGNAAEAMAVIDDSAMNVLVARSISEATEWLKGKDDLIAAHDVILDEHATKKQPHKVGDMQDVVGQSDAKKAAEIAVAGGHNIVMIGPPGSGKSMIAQRMAGLLPALTHTEMIEATAIHSVMGQAFNGPMTHPPFVAPHHSITKAALLGGGSGNLQPGAASLAHTGVLFLDEVSEIPANILDCLRMPLECGEIKLMRHRREVTFPARFQLVMATNPCRCAAELPSECRCSATTRARYLSNISGPLRDRLDIFVRTHAQGAVISDANQESSKSIAERVQSARERSEHRWRTAGFTVTTNAAMDPYHLRRHFPADEASMALLSSYLGDGELSQRGVDRALKVAWTLCDLEGKTRPDLGHTAYALELRDDCIRENAA | not soluble
SGWVWNQFFVLEEYTGTDPLYVGKLHSDMDRGDGSIKYILSGEGAGIVFTIDDTTGDIHAIQRLDREERSQYTLRAQALDRRTGRPMEPESEFIIKIQD | soluble
MLNTIVLIRTDNFDKALTALADLVRYGGMKIRGTPRIIPPALSDWAFEQIVGEKPKKKVKAHVVAQIDLPASKAIGRIRDIHPPAHIIVIPVGSPVHKELLRLWGTFKELKGFHPPKEIKRLENIENEEDLELEHHHHHH | not soluble
MAHHHHHHMLHRIPAYRDPLLQVLSDALKRALDFYRREMSAGMSVEFECRLGTFSASKHTYAHPFPTHTLTPALLDGQSTTPFFFFAGVAQPSFIAAHETLKTIGASMPPRSSTVLSVRTVGKDRLEYAMNEACNSGHLLTIVEKERIFSHDVRCPGWGADFRVSVSREKTIDRETWNQAKWESFTPNISRLRQRKSVRIDPFLSVDMAMVRSFTDHSRFVRPWSPELQVPFISAPHVSFDVELEVNMPALHRVVKQTRLVESTLGRTALDLLTVLQFLAAKRE | not soluble
MSLKYNDNFQTILRHGVEKQVALLDADIFMENGQDDVELQMRQFRNLVNSKVDAIVVAMVNGKSAAEMMRLANEAKVPLVFVNRNPEPAKWPALTAFVGSDELESGTLQMEELARRAGYKGNVVILVGDPSNKSSVMRTEDVEKVVAKYPNMKVVQKKIGNWERSQAATIVIDWVKQGVDFSIVAANNDEMAIGAIMGLEKAGKNARDYLVGGIDGTPDGLKLMAEGKMAVSVFQDAVGQANGAVDAALSMARGETLASPVIWVPFKLITPENRQQFEEGHHHHHH | soluble
MWKAVMNAWNGTESQSKNVSNIQSYSFEDMKRIVGKHDPNVVLVDVREPSEYSIVHIPASINVPYRSHPDAFALDPLEFEKQIGIPKPDSAKELIFYCASGKRGGEAQKVASSHGYSNTSLYPGSMNDWVSHGGDKLDL | soluble
MGSDKIHHHHHHMAIAPTLNIPQAKFLAMQYKFKAYVAGFGSGKTWVGCGGICKGMWEHPKINQGYFAPTYPQIRDIFYPTVEEVAHDWGLNVKINEGNKEVHFYAGRQYRGTTICRSMEKPQTIVGFKIGNALIDELDVMPAKKAQLAWRKIIARMRYNVAGLRNGIDVTTTPEGFKFVYQQFAKAVRDKPSLSTLYGLVQASTFDNEKNLPPDYIPSLMESYPPELIKAYLRGQFTNLTSGTIYHQFDRKLNNCREEEQPGEPLYIGMDFNVGKMAGVVHVLRLGLPFAVTEIIKAYDTPDMIRIIKERFWLCDGHDYRKVREIYIYPDASGDSRKSSNASATDIAQLKQAGFNVVVNASNPPVKDRINAMNAMFCNGNGERRYKVNVKRCPVYTESLEQQVWGENGEPDKTADNDHPNDAGGYFIVKQFPIIKPTGKVTQLRM | not soluble
MSLAQYPVIGIDDDEFATAKKLITKQEVRAVTLSKLRLQDDLVMWDIGAGSASVSIEASNLMPNGRIFALERNPQYLGFIRDNLKKFVARNVTLVEAFAPEGLDDLPDPDRVFIGGSGGMLEEIIDAVDRRLKSEGVIVLNAVTLDTLTKAVEFLEDHGYMVEVACVNVAKTKGLTEYKMFESHNPVYIITAWKSDEGHHHHHH | soluble
MANLPSSSGMFSRLLANVFNTTVASRCSASGRWWPQPDRRFTTKSDEKSSLEPKNTNETDVIITQQGVKLSKSNAAPVYYKPKSTGPGYELVEHKKGEMIANYTLFEAAINKSKVPWVNYDGLTSEERTIHMAHTRAINDRKLTYIDPKTGYSVFTISHHLQKGKCCGNGCRHCAYEMINASDEIRSQKVWNGAFYV | not soluble
NNEIMPGKMKVKATKGEGDGGITSEGNALYNNEGGRAFMYAYVTTKPGMKYVKWEHDSGVVTVELEPPCRFVIDTPTGPQIKYLYFVKNLNNLRRGAVLGYIGATVRLQ | soluble
MSKDDPINSIFFEHQEAALCAQHALNMLLQDALYKWQDLRDLAIQMDKMEQQILGNANPTPGRSENMNESGYFSIQVLEKALETFSLKLTNIENPAMVDYKNNPLTARAYICNLREHWFVLRKFGNQWFELNSVNRGPKLLSDTYVSMFLHQVSSEGYSIFVVQGVLPRSDADDLISLCPVVPPKVTPKKEQKLEKVMTKFFNTVGKRLGGGSGAPPDSQEEKDLAIAFAMSMETKDGSEVSRSSAEIDEENLRKAIELSQAPGPSEPAEIPLLTRSRSSTPPGASEPFSNAEQQRRDRQKFLERFEKKKEERNDEK | not soluble

From the DeepSol protein solubility set
